Patent US5804555

Molecular target: commercially available lactoferrin (manufactured by Oleofina Company, Belgium) just as isolated from cow's milk (bovine (cow's milk)) (UniProt P24627)

Substance: commercially available swine pepsin (1:10000; manufactured by Wako Jun-yaku Co., Ltd.) (from UniProt P00791) (enzyme)
- hydrolyzing rate of the product: 11.3%
